Source: EP4585616A1, “ANTIBODY CAPABLE OF SPECIFICALLY BINDING TO ROR1, […] THEREOF, AND PREPARATION METHOD THEREFOR AND USE THEREOF” (Hefei Institutes of Physical Science, Chinese Academy of …, priority 2022, dated 2024)

Tests used:
[1] = target: T1, human ROR1 on the surface of tumor cells (human, UniProt Q01973 30-937); assay: FACS, NCI-H226 cells
T1 construct: whole, on cells; also called ROR1 on the cell surface; tumor cell ROR1

[2] = target: T1, human ROR1 on the surface of tumor cells; assay: FACS, MDA-MB-231 cells
[3] = target: T2, Extracellular domain of human ROR1 protein (ROR1-ECD) (human, UniProt Q01973 30-403); assay: ELISA, plate-coated ROR1-ECD
T2 construct: Expressed in HEK293T cells; also called human ROR1-ECD; purified human ROR1 protein extracellular segment

[4] = target: T3, ROR1 extracellular segment sequence (including transmembrane) on CHO cells (human, UniProt Q01973 30-472); assay: FACS, CHO-ROR1 (extracellular segment) cells
T3 construct: Cloned into pCDNA3.1 and transfected into CHO cells; also called CHO-ROR1 (extracellular segment); CHO-ROR1

[5] = target: T4, ROR1 extracellular segment with Ig-like domain removed on CHO cells (human, UniProt Q01973 30-472, limits assumed); assay: FACS, CHO-ROR1 (with Ig-like domain removed) cells
T4 construct: Transfected into CHO cells; also called CHO-ROR1 (with Ig-like domain removed)

[6] = target: T5, ROR1 extracellular segment with Kringle domain removed on CHO cells (human, UniProt Q01973 30-472, limits assumed); assay: FACS, CHO-ROR1 (with Kringle domain removed) cells
T5 construct: Transfected into CHO cells; also called CHO-ROR1 (with Kringle domain removed)

[7] = target: T6, ROR1 extracellular segment with Frizzled domain removed on CHO cells (human, UniProt Q01973 30-472, limits assumed); assay: FACS, CHO-ROR1 (with Frizzled domain removed) cells
T6 construct: Transfected into CHO cells; also called CHO-ROR1 (with Frizzled domain removed)

[8] = target: T3, ROR1 extracellular segment sequence …; assay: FACS, ROR1 transferred onto CHO cell surface (summing up of Example 9)
MDA-MB-231 tumors = assay: In vivo antitumor activity, subcutaneous tumor model; set-up: species or system immunodeficient mice (NCG or Balb/c-nude); conditions: 5 mg/kg once a week, tail vein, 3 weeks, result in words
Method: (§1) 200 µL of cell matrix gel suspension containing 5×10^6 MDA-MB-231 and HT-29 were inoculated subcutaneously on the back of immunodeficient mice (NCG or Balb/c-nude). When the tumor volume grew to 100 to 200 mm^3, the mice were randomly divided into groups (n=10) according to the tumor volume and nude mouse weight. The mice were dosed at doses of 5 mg/kg and 2.5 mg/kg once a week through the tail vein for a total of 3 weeks, as well as a group with PBS set as a negative control. The tumor volume and nude mouse weight were measured and recorded 2 to 3 times a week to plot the tumor growth curve. The formula for calculating tumor volume (V) is: V=1/2×a×b^2, where a and b represent the length and width of the tumor, respectively.
as §1, with “5 × 10^6 MDA-MB-231, 1 × 10^7 HCC1187, 1 × 10^7 PA-1, or 5 × 10^6 NCI-N87 was” for “5×10^6 MDA-MB-231 and HT-29 were”, “300 mm3,” for “200 mm^3,”, “(n=8 to 10)” for “(n=10)”, “The formula for calculating tumor volume (V) is: V=1/2×a×b^2, where a and b represent the length and width of the tumor, respectively.” left out

HT-29 tumors = assay: as above; set-up: species or system immunodeficient mice (NCG or Balb/c-nude); conditions: 5 mg/kg and 2.5 mg/kg once a week, tail vein, 3 weeks, result in words
Method: as §1

COLO-678 cells = assay: In vitro anti-proliferative activity (CCK8); assay type: cell-based; conditions: Bowel cancer, read-out: Proliferation inhibition rate IC50±SD
Method: (§2) The cell lines used in this example, including MCF-7, MDA-MB-231, NCI-N87, NCI-H446, HT-29, HCC827, and HCC1187 cells, were purchased from Cobioer Biosciences, Nanjing, and Yuchi Biology, Shanghai, and cultured according to the corresponding instructions. The above cells in logarithmic growth phase were inoculated into 96-well cell culture plates at a density of 250 to 1500 cells per well (depending on the growth rate of different cells) at 150 µL/well, and cultured at 37°C, 5% CO2 for about 3 to 5 hours. Then, mAb001c-vcMMAE at different concentrations were added, each drug concentration in 2 to 4 replicates, as well as the corresponding vehicle control and blank control wells. After 5 to 6 days of action (depending on the cell growth rate, to ensure a sufficient number of cell divisions), the culture medium was removed and CCK8 reaction solution (purchased from MCE, cat# HY-K0301) was added at 100 µL/well. The reaction was carried out at 37°C until the expected color depth. The cell viability (OD450 nm) of each group was measured, and the cell survival rate was calculated according to the following formula: survival rate = (OD drug-OD blank)/(OD control-OD blank) × 100%. The above data were analyzed by GraphPad Prism 5 software, and the IC50 values of the above ROR1 antibody-drug conjugates for different cell lines were calculated.
(§3) The cell lines used in this example, including breast cancer cell lines MCF-7, SK-BR-3, MDA-MB-231, and HCC1187, colorectal cancer cell lines HT-29, SK-CO-1, and COLO-678, lung cancer cell lines HCC827, and H446, ovarian cancer cell line PA-1, gastric cancer cell line NCI-N87, were purchased from Cobioer Biosciences, Nanjing, and Yuchi Biology, Shanghai, and cultured according to the corresponding instructions. The CCK8 method was used to determine the in vitro killing activity of Hu001-2-MMAE, Hu001-3-MMAE, Hu005-44-MMAE, and Hu005-46-MMAE against various cancer cells, as well as UC961-MMAE as a positive reference. The implementation method was referred to Example 13.

HCC1187 cells = assay: In vitro anti-proliferative activity (CCK8); assay type: cell-based; conditions: Breast cancer, read-out: Proliferation inhibition rate IC50±SD
Method: as §2, §3

HCC827 cells = assay: In vitro anti-proliferative activity (CCK8); assay type: cell-based; conditions: Lung cancer, read-out: Proliferation inhibition rate IC50±SD
Method: as §2, §3

HT-29 cells = assay: In vitro anti-proliferative activity (CCK8); assay type: cell-based; conditions: Bowel cancer, read-out: Proliferation inhibition rate IC50±SD
Method: as §2, §3

MCF-7 cells = assay: In vitro anti-proliferative activity (CCK8); assay type: cell-based; conditions: Breast cancer, read-out: Proliferation inhibition rate IC50±SD
Method: as §2, §3

MDA-MB-231 cells = assay: In vitro anti-proliferative activity (CCK8); assay type: cell-based; conditions: Breast cancer, read-out: Proliferation inhibition rate IC50±SD
Method: as §2, §3

NCI-H446 cells = assay: In vitro anti-proliferative activity (CCK8); assay type: cell-based; conditions: Lung cancer, read-out: Proliferation inhibition rate IC50±SD
Method: as §2, §3

NCI-N87 cells = assay: In vitro anti-proliferative activity (CCK8); assay type: cell-based; conditions: Gastric cancer, read-out: Proliferation inhibition rate IC50±SD
Method: as §2, §3

PA-1 cells = assay: In vitro anti-proliferative activity (CCK8); assay type: cell-based; conditions: Ovarian cancer, read-out: Proliferation inhibition rate IC50±SD
Method: as §2, §3

SK-BR-3 cells = assay: In vitro anti-proliferative activity (CCK8); assay type: cell-based; conditions: Breast cancer, read-out: Proliferation inhibition rate IC50±SD
Method: as §2, §3

SK-CO-1 cells = assay: In vitro anti-proliferative activity (CCK8); assay type: cell-based; conditions: Bowel cancer, read-out: Proliferation inhibition rate IC50±SD
Method: as §2, §3

HCC1187 tumors = assay: In vivo antitumor activity, subcutaneous tumor model; set-up: species or system immunodeficient mice (NCG or Balb/c-nude); conditions: for Tumor inhibition rate (%): day 21
Method: as §1, with “5 × 10^6 MDA-MB-231, 1 × 10^7 HCC1187, 1 × 10^7 PA-1, or 5 × 10^6 NCI-N87 was” for “5×10^6 MDA-MB-231 and HT-29 were”, “300 mm3,” for “200 mm^3,”, “(n=8 to 10)” for “(n=10)”, “V=1/2×a×b2,” for “V=1/2×a×b^2,”

NCI-N87 tumors = assay: as above; set-up: species or system immunodeficient mice (NCG or Balb/c-nude); conditions: for Tumor inhibition rate (%): day 21
Method: as §1, with “5 × 10^6 MDA-MB-231, 1 × 10^7 HCC1187, 1 × 10^7 PA-1, or 5 × 10^6 NCI-N87 was” for “5×10^6 MDA-MB-231 and HT-29 were”, “300 mm3,” for “200 mm^3,”, “(n=8 to 10)” for “(n=10)”, “V=1/2×a×b2,” for “V=1/2×a×b^2,”

PA-1 tumors = assay: as above; set-up: species or system immunodeficient mice (NCG or Balb/c-nude); conditions: PA-1 model; for Tumor inhibition rate (%): day 28
Method: as §1, with “5 × 10^6 MDA-MB-231, 1 × 10^7 HCC1187, 1 × 10^7 PA-1, or 5 × 10^6 NCI-N87 was” for “5×10^6 MDA-MB-231 and HT-29 were”, “300 mm3,” for “200 mm^3,”, “(n=8 to 10)” for “(n=10)”, “V=1/2×a×b2,” for “V=1/2×a×b^2,”

[9] = 2.5mg/kg once a week x3, tail vein
[10] = 5mg/kg once a week x3, tail vein

T1 sequence (Q01973 30-937): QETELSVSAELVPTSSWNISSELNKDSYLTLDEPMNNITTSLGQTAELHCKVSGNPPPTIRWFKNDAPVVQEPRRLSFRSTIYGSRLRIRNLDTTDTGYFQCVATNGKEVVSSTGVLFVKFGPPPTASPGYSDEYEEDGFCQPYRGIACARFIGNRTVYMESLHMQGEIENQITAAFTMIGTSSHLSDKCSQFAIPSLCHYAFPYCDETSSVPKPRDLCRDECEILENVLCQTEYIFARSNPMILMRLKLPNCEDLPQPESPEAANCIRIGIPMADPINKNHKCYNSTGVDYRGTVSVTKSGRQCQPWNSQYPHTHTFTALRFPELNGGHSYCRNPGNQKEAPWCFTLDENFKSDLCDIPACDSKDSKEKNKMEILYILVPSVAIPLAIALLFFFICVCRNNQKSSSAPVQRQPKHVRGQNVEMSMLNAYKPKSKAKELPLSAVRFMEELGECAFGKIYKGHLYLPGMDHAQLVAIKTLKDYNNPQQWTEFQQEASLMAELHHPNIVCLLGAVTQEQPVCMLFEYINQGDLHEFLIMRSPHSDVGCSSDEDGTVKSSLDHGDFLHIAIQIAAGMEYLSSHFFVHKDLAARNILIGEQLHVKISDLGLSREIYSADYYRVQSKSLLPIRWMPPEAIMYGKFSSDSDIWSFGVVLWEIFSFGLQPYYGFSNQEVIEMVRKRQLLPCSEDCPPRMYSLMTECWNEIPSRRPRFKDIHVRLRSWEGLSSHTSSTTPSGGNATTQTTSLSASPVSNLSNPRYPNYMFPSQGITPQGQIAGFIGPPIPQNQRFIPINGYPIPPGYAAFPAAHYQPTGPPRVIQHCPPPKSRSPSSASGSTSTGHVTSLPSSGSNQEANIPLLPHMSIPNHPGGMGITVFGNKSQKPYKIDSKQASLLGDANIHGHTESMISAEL
T3 sequence (Q01973 30-472 limits assumed): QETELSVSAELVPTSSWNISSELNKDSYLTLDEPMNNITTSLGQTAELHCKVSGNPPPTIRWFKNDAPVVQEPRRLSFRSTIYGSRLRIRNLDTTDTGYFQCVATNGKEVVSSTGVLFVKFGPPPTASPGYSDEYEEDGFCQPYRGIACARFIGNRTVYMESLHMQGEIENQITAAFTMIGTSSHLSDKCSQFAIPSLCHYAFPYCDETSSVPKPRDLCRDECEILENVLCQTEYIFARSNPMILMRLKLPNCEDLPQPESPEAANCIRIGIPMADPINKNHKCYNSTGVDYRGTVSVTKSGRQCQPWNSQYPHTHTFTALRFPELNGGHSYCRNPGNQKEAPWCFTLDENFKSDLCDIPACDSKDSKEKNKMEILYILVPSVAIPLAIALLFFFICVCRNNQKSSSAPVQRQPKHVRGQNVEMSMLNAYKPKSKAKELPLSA
T4 sequence (Q01973 other isoform, or with tags, fused parts or gaps limits assumed): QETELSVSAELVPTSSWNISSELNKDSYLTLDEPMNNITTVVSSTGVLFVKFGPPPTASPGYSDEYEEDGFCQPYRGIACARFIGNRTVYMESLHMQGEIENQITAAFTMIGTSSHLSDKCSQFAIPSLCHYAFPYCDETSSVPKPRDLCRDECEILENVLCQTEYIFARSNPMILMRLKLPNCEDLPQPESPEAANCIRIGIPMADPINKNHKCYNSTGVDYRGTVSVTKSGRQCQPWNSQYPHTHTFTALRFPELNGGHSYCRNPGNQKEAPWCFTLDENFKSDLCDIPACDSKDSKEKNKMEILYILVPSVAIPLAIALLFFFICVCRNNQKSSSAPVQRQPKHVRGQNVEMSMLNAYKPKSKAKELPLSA
T5 sequence (Q01973 other isoform, or with tags, fused parts or gaps limits assumed): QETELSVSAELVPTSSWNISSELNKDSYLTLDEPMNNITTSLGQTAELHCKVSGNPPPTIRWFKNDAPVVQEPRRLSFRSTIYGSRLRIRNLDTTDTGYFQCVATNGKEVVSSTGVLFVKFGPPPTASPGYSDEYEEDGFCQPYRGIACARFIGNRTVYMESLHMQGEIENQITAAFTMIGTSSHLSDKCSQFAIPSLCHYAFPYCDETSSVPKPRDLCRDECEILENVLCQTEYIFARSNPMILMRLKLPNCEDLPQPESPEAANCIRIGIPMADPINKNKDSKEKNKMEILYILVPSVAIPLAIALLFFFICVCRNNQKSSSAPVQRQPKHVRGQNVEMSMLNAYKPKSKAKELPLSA
T2 sequence (Q01973 other isoform, or with tags, fused parts or gaps): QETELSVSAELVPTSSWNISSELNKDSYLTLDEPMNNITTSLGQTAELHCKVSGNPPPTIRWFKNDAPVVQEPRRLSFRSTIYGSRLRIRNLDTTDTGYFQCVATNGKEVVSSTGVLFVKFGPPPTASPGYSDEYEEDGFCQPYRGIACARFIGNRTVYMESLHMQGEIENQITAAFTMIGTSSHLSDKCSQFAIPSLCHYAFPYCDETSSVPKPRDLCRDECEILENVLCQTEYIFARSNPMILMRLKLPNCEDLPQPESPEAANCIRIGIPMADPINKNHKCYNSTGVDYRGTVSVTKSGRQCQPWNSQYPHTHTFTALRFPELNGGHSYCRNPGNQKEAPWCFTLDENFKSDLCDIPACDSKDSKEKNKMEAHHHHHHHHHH
T6 sequence (Q01973 other isoform, or with tags, fused parts or gaps limits assumed): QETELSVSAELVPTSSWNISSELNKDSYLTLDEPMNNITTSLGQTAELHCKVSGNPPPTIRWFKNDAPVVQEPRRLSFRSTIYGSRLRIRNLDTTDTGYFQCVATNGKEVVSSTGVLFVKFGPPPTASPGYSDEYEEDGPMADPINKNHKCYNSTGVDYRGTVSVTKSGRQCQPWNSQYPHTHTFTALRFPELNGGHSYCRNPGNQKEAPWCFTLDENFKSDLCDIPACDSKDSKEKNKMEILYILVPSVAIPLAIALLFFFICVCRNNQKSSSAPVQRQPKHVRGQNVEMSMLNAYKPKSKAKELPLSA

B1: mAb004c (antibody, V domains shown)
VH: EVQLVESGGGLVQPKGSLKLSCAASGFTFNTYAMHWVRQAPGKGLEWVARIRSKSSNFATYYADSVRDRFTISRDDSQSMLYLQMNNLKTEDTAMYYCVRGYGPSYFSLDYWGQGTSVTVSS
VL: DVVMTQTPLSLPVSLGDQASISCRSSQSLVHSNGNTYLHWYLQKPGQSPKLLIYKVSNRFSGVPDRFSGSGSGTDFTLKINRVEAEDLGVYFCSQSTHAIYTFGGGTKLEIK
notes: Human-mouse chimeric
[1]
  EC50: 460 pM
[2]
  EC50: 400 pM
[3]
  EC50: 12 pM
[4]
  EC50: 320 pM
[5]
  EC50: 350 pM
[6]
  EC50: 840 pM
[7]
  EC50: 1370 pM
[8]
  EC50: < 2000 pM

B2: mAb001c (antibody, V domains shown)
VH: EVRLQQSGPVLVKPGASVKMSCKASGYTFTDYNLHWVKQSHRQSLEWIGYINPNHDGTSYNQKFQGKATLTVDRSSSTAYMEFRSLTSEDSAVYYCARRVRTGTGLDDWGQGTTLTVSS
VL: DVLMTQSPLSLPVSLGDQASISCRSSHNIVHTNGNTYLEWYLQKPGQSPKLLIYKVSNRFSGVPDRFSGSGSGTYFTLTISRVEAEDLGVYYCFQGSRFPYTFGGGTKLEIK
notes: Human-mouse chimeric; also called human-mouse chimeric antibody mAb001c
[1]
  EC50: 110 pM
[2]
  EC50: 150 pM
[3]
  EC50: 12 pM
[4]
  EC50: 320 pM
[5]
  EC50: 360 pM
[6]
  EC50: 380 pM
[7]
  EC50: 850 pM
[8]
  EC50: < 2000 pM

B3: mAb001c-vcMMAE: antibody conjugate of chimeric antibody mAb001c coupled with vcMMAE, average DAR about 3.81 (conjugate)
VH: EVRLQQSGPVLVKPGASVKMSCKASGYTFTDYNLHWVKQSHRQSLEWIGYINPNHDGTSYNQKFQGKATLTVDRSSSTAYMEFRSLTSEDSAVYYCARRVRTGTGLDDWGQGTTLTVSS
VL: DVLMTQSPLSLPVSLGDQASISCRSSHNIVHTNGNTYLEWYLQKPGQSPKLLIYKVSNRFSGVPDRFSGSGSGTYFTLTISRVEAEDLGVYYCFQGSRFPYTFGGGTKLEIK
MDA-MB-231 tumors
  inhibition of the growth of MDA-MB-231 tumors: completely inhibit
HT-29 tumors
  inhibition of the growth of HT-29 tumors: significantly and dose-dependently inhibited

B4: UC961-MMAE: UC961 coupled with vcMMAE, prepared as a positive reference, average DAR about 3.95 (conjugate)
VH: QVQLQESGPGLVKPSQTLSLTCTVSGYAFTAYNIHWVRQAPGQGLEWMGSFDPYDGGSSYNQKFKDRLTISKDTSKNQVVLTMTNMDPVDTATYYCARGWYYFDYWGHGTLVTVSS
VL: DIVMTQTPLSLPVTPGEPASISCRASKSISKYLAWYQQKPGQAPRLLIYSGSTLQSGIPPRFSGSGYGTDFTLTINNIESEDAAYYFCQQHDESPYTFGEGTKVEIK
COLO-678 cells
  IC50: 19100 ± 780 pM
HCC1187 cells
  IC50: 3000 ± 1500 pM
HCC827 cells
  IC50: 45300 ± 25700 pM
HT-29 cells
  IC50: 24600 ± 1040 pM
MCF-7 cells
  IC50: > 100000 pM
MDA-MB-231 cells
  IC50: 13500 ± 3610 pM
NCI-H446 cells
  IC50: 11600 ± 2520 pM
NCI-N87 cells
  IC50: 11200 ± 2470 pM
PA-1 cells
  IC50: 3350 ± 120 pM
SK-BR-3 cells
  IC50: > 100000 pM
SK-CO-1 cells
  IC50: 5750 ± 2460 pM
HCC1187 tumors; [9]
  Tumor volume ± SE (mm^3) on day 21th of administration: 2576.56±461.28 mm^3
HCC1187 tumors; 2.5mg/kg
  Tumor inhibition rate (%): 15.18%
HCC1187 tumors; [10]
  Tumor volume ± SE (mm^3) on day 21th of administration: 407.09±69.85 mm^3
HCC1187 tumors; 5mg/kg
  Tumor inhibition rate (%): 86.60%
NCI-N87 tumors; [9]
  Tumor volume ± SE (mm^3) on day 21th of administration: 2010.44±266.07 mm^3
NCI-N87 tumors; 2.5mg/kg
  Tumor inhibition rate (%): 19.87%
NCI-N87 tumors; [10]
  Tumor volume ± SE (mm^3) on day 21th of administration: 1171.18±130.32 mm^3
NCI-N87 tumors; 5mg/kg
  Tumor inhibition rate (%): 53.32%
PA-1 tumors; [9]
  Tumor volume ± SE (mm^3) on day 28th of administration: 1032.13±123.29 mm^3
PA-1 tumors; 2.5mg/kg
  Tumor inhibition rate (%): 32.09%
PA-1 tumors; [10]
  Tumor volume ± SE (mm^3) on day 28th of administration: 44.67±3.04 mm^3
PA-1 tumors; 5mg/kg
  Tumor inhibition rate (%): 97.06%
